# The DeepSol protein solubility set
# Assay: soluble on expression in E. coli; label from the status in PepcDB or PDB records
row,Sequence,soluble on expression in E. coli
1,ATITIETCEDPGDWTAAIGDDTFTFWRGLKDAGLLDEVIQEFHQELVETMRGLQQRVQDPPLQLRDAVLLNNIVQNFGMLDLVKKVLASHKCQMDRSREQYARDLAAL,soluble
2,ATLKDITRRLKSIKNIQKITKSMKMVAAAKYARAERELKPARVYGVGSLALYEKADIKTPEDKKKHLIIGVSSDRGLCGAIHSSVAKQMKSEAANLAAAGKEVKIIGVGDKIRSILHRTHSDQFLVTFKEVGRRPPTFGDASVIALELLNSGYEFDEGSIIFNRFRSVISYKTEEKPIFSLDTISSAESMSIYDDIDADVLRNYQEYSLANIIYYSLKESTTSEQSARMTAMDNASKNASEMIDKLTLTFNRTRQAVITKELIEIISGAAAL,soluble
3,AVHITLDPDTANPWLILSEDRRQVRLGDTQQSIPGNEERFDSYPMVLGAQHFHSGKHYWEVDVTGKEAWDLGVCRDSVRRKGHFLLSSKSGFWTIWLWNKQKYEAGTYPQTPLHLQVPPCQVGIFLDYEAGMVSFYNITDHGSLIYSFSECAFTGPLRPFFSPGFNDGGKNTAPLTLCPLNIGSQG,not soluble
4,AVKEMVYRTRLANGLTVALLPKKEFKEVYGSVTVQFGSVDTFVTEVDGDVKQYPGGIAHFLEHKLFEREDSSDLMSAFTSLGADSNAFTSFTKTNYLFSATDYFLENLDLLDELVTSAHFTEASILTEQDIIQQEREMYQDDPDSCLFFSTLANLYPGTPLATDIVGSEESISQINLTNLQENFTKFYKPVNMSLFLVGNFDVERVQDYFESKELKDSDFQEVAR,not soluble
5,AVKILEIEDLFSSLKHIQHTLVDSQSQEDISLLLQLVQNKDFQNAFKIHNAITVHMNKAS,soluble
6,AVKLQESGPGILKPSQTLSLTCSFSGFSLTTYGMGVGWIRQSSGKGLEWLAHIWWDDDKYYNPSLKSRLTISKDTSRNQVFLKITSVATADTATYYCARRAPFYGNHAMDYWGQGTTVTVSSAKTTPPSVYPLAPGSAAQTNSMVTLGCLVKGYFPEPVTVTWNSGSLSSGVHTFPAVLQSDLYTLSSSVTVPSSPRPSETVTCNVAHPASSTKVDKKI,soluble
7,AVLDLDVRTCLPCGPGGKGRCFGPSICCGDELGCFVGTAEALRCQEENYLPSPCQSGQKPCGSGGRCAAAGICCSPDGCEEDPACDPEAAFS,soluble
8,AVPFVEDWDLVQTLGEGAYGEVQLAVNRVTEEAVAVKIVDMKRAVDCPENIKKEICINKMLNHENVVKFYGHRREGNIQYLFLEYCSGGELFDRIEPDIGMPEPDAQRFFHQLMAGVVYLHGIGITHRDIKPENLLLDERDNLKISDFGLATVFRYNNRERLLNKMCGTLPYVAPELLKRREFHAEPVDVWSCGIVLTAMLAGELPWDQPSDSCQEYSDWKEKKTYLNPWKKIDSAPLALLHKILVENPSARITIPDIKKDRWYNKPLKKG,soluble
9,AVSDQRLSEATLRELEDERQRAGLPEKPEIPEGWTIDRKPGVTHFTMRKSHGDEEIILQLTGEDRSNEEITRTLDVLVVNGGKALVFGMSVEDGEFVINNVCFRHDGKLALDTSAEAQFQKSQLYMGPDLADLEDHLVDSFTSYLSARGVNDTLANFIDQFSLWSEQADYEEWLSSINKFVS,soluble
10,AVVITDRQNRIIKVNNEFTRLSGYTFEDVKGKQPSIFASGLHKVEFYMQMWKALQDNGVWEGEVINKRKDGESITEILRIQSIRDEDNVIQFYVASFVDIS,not soluble
11,AYVITEPCIGTKDASCVEVCPVDCIHEGEDQYYIDPDVCIDCGACEAVCPVSAIYHEDFVPEEWKSYIQKNRDFFKK,soluble
12,CFSCLNQKSNLYCLKPTICSDQDNYCVTVSASAGIGNLVTFGHSLSKTCSPACPIPEGVNVGVASMGISCCQSFLCNFS,soluble
13,CGIVGAIAQRDVAEILLEGLRRLEYRGYDSAGLAVVDAEGHMTRLRRLGKVQMLAQAAEEHPLHGGTGIAHTRWATHGEPSEVNAHPHVSEHIVVVHNGIIENHEPLREELKARGYTFVSETDTEVIAHLVNWELKQGGTLREAVLRAIPQLRGAYGTVIMDSRHPDTLLAARSGSPLVIGLGMGENFIASDQLALLPVTRRFIFLEEGDIAEITRRSVNIFDKTGAEVKRQDIESNLQYDAGDKGIYRHYMQKEIYEQPNAIKNTLTGRISHGQVDLSELGPNADELLSKVEHIQILACGTSYNSGMVSRYWFESLAGIPCDVEIASEFRYRKSAVRRNSLMITLSQSGETADTLAGLRLSKELGYLGSLAICNVPGSSLVRESDLALMTNAGTEIGVASTKAFTTQLTVLLMLVAKLSKLKGLDASIEHDIVHGLQALPSRIEQMLSQDKRIEALAEDFSDKHHALFLGRGDQYPIALEGALKLKEISYIHAEAYAAGELKHGPLALIDADMPVIVVAPNNELLEKLKSNIEEVRARGGQLYVFADQDAGFVSSDNMHIIEMPHVEEVIAPIFYTVPLQLLAYHVALIKGTDVDQPRNLAKSVTVE,soluble
14,CTEPLGLKDNTIPNKQITASSYYKTWGLSAFSWFPYYARLDNQGKFNAWTAQTNSASEWLQIDLGSQKRVTGIITQGARDFGHIQYVAAYRVAYGDDGVTWTEYKDPGASESKIFPGNMDNNSHKKNIFETPFQARFVRIQPVAWHNRITLRVELLGC,soluble
15,CTRAVYLGPDRMVVTGRTMDWKEDIMSNIYVFPRGMQRAGHNKEKTVNWTSKYGSVIATGYDIGTCDGMNEKGLVASLLFLPESVYSLPGDTRPAMGISIWTQYVLDNFATVREAVDEMKKETFRIDAPRMPNGGPESTLHMAITDETGNTAVIEYLDGKLSIHEGKEYQVMTNSPRYELQLAVNDYWKEVGGLQMLPGTNRSSDRFVRASFYIHAIPQTADAKIAVPSVLSVMRNVSVPFGINTPEKPHISSTRWRSVSDQKNKVYYFESTLTPNLFWLDLKKIDFSPKAGVKKLSLTKGEIY,not soluble
16,DAPAVGKDLTQAAENIPPAFHNAPRQGELPALNYVNQPPMVPHSVANYQVTKNVNQCLNCHSPENSRLSGATRISPTHFMDRDGKVGSSSSPRRYFCLQCHVSQANVDPIVPNDFKPMKGYGN,soluble

row,Sequence,soluble on expression in E. coli
1,DAVPEKSLNAALLCLQAMGALDDNGDVTEHGKKVYPLPIDALFADLVTRIPTKAEKEAMIDLAAALSVPAQLYQLQRGEAAEALEREEPLGCD,not soluble
2,DDFLTLDACKIALKEMKKGFDLLCFDAFVHRVKTKQFYRFKQDEFFNQKEFLEFLSKQRHFCWSVWAKCFRKDIILKSFEKIKIDERLSYGEDVLFCYVYFMFCEKIAVFKTCIYHYEFNPNGRYENKNKEILWQNYQDKKKSNELVKKLCLNFKNNDFHKKLFEVLEKEEFDLQRRVDEARN,not soluble
3,DENASAAEQVNKTIIGIDPGSGIMSLTDKAMKDYDLNDWTLISASSAAMTATLKKSYDRKKPIIITGWTPHWMFSRYKLKYLDDPKQSYGSAEEIHTITRKGFSKEQPNAAKLLSQFKWTQDEMGEIMIKVEEGEKPAKVAAEYVNKHKDQIAEWTKGVQKVKGDKINLAYVAWDSEIASTNVIGKVLEDLGYEVTLTQVEAGPMWTAIATGSADASLSAWLPNTHKAYAAKYKGKYDDIGTSMTGVKMGLVVPQYMKNVNSIEDLKK,soluble
4,DGISSLLKPLSKIGLDTKTFALLISMTLRFVPILSDEFSTIVDAQRSRGLSLKTGSIVKRTKTLIPMIIPLISVAFKKALTLADTMEIRGFIDAKSRTSFHQLKFQKID,not soluble
5,DGQLTNLPGGIDEYLKRREALAAQNQSGVVNLGGNNEAASAPVPEKKLSSQEQREITKQMNALERKMGKLDPKIAKINEEMAAAAQRVDTAELTRLDAELNELTAQREGLEMEWMDLGERLES,soluble
6,DHYACVSSGGQCLYSACPIFTKIQGTCYRGKAKCCK,soluble
7,DIHPYSVSYSWDKQVEDEDHMEVFPAGSSFPSTKLITLNRTGDFSMAASYTDITQLPPNTPEQIANWEITGVQLPEGQDSVPVKLKLRCDPSGLHTIEEAYTIEDIEVEEPIPLPEDAPEDAEQEFKKVTKTVKKDDLTIVAHTFGLDAKKLNELIEKENEMLAQDKLVAETEDRKNTLE,not soluble
8,DKFFIWGKRIDYNALKTTLIKKAQDENLLHFTPKISLVEDGFIRSISLGSDLTRPFSLIVDDKGLYIDPNKASKLEELLQNEIFDENMLNRAKNIIKILLENRFSKYNGLKHEDLKINAKIGQKIILIPAQVEDDASMILGGFGLSTLDLLKEVRAKNQDAYIIFKPHPDVLSGNRVGLKDETLILEFCDEIVKDCSIDSAIKIADEIHTITSTSGFDALLRAKKVFTYGMPFYAGWGLTKDKYRCERRIRKLSLEELVAGALIIYPRY,not soluble
9,DNSSFDSLSPEPKSRFAMLDDVKILANGLLQLGHGLKDFVHKTKGQINDIFQKLNIFDQSFYDLSLQTSEIKEEEKELRRTTYKLQVKNEEVKNMSLELNSKLESLLEEKILLQQKVKYLEEQLTNLIQNQPETPEHPEVTSLKTFVEKQDNSIKDLLQTVEDQYKQLNQQHSQIKEIENQLRRTSIQEPTEISLSSKPRAPRTTPFLQLNEIRNVKHDGIPAECTTIYNRGEHTSGMYAIRPSNSQVFHVYCDVISGSPWTLIQHRIDGSQNFNETWENYKYGFGRLDGEFWLGLEKIYSIVKQSNYVLRIELEDWKDNKHYIEYSFYLGNHETNYTLHLVAITGNVPNAIPENKDLVFSTWDHKAKGHFNCPEGYSGGWWWHDECGENNLNGKYNKPRAKSKPERRRGLSWKSQNGRLYSIKSTKMLIHPTDSESFE,not soluble
10,DPVFLDIFKSDKEDYEQRLRGAIREELNAFWQAKQPMIGLYLGEAMVGVACINSPDETLASDRFWHWRLKMLLNAGYFSTKQMMQKEHTVLAAVPLKIFHFLSFIAVHPLHQQHGFGHYLMAAVNTVLDEHPDSEGVAVYATSGKFKEFFKQVDYHTVKEVTVGNV,not soluble
11,DQAGKSPNAVRYHGGDEIILQGFHWNVVREAPNDWYNILRQQAATIAADGFSAIWMPVPWRDFSSWSDGSKSGGGEGYFWHDFNKNGRYGSDAQLRQAASALGGAGVKVLYDVVPNHMNRGYPDKEINLPAGQGFWRNDCADPGNYPNDCDDGDRFIGGDADLNTGHPQVYGMFRDEFTNLRSQYGAGGFRFDFVRGYAPERVNSWMTDSADNSFCVGELWKGPSEYPNWDWRNTASWQQIIKDWSDRAKCPVFDFALKERMQNGSIADWKHGLNGNPDPRWREVAVTFVDNHDTGYSPGQNGGQHHWALQDGLIRQAYAYILTSPGTPVVYWDHMYDWGYGDFIRQLIQVRRAAGVRADSAISFHSGYSGLVATVSGSQQTLVVALNSDLGNPGQVASGSFSEAVNASNGQVRVWRSGTGSGGGEPGALVSVSFRCDNGATQMGDSVYAVGNVSQLGNWSPAAALRLTDTSGYPTWKGSIALPAGQNEEWKCLIRNEANATQVRQWQGGANNSLTPSEGATTVGRL,soluble
12,DRFVYTCNECKHHVETRWHCTVCEDYDLCITCYNTKNHDHKM,not soluble
13,DSNALWMPYVNGRIRVIVMRNGGGGIFRFIPGPDSLKELETCFETPLEVPVREMAGAYGWRYMKAVSAEELETVLPSFFASGDRAVLLEVETPRFENAPVLKSYFTYISGESYPVNR,not soluble
14,DVAVRTLSDVPSAAPQNLSLEVRNSKSIMIHWQPPAPATQNGQITGYKIRYRKASRKSDVTETLVSGTQLSQLIEGLDRGTEYNFRVAALTINGTGPATDWLSAETFESDLDETRVPEV,soluble
15,DVKIEKLKDNLYVYTTYNTFNGTKYAANAVYLVTDKGVVVIDCPWGEDKFKSFTDEIYKKHGKKVIMNIATHSHDDRAGGLEYFGKIGAKTYSTKMTDSILAKENKPRAQYTFDNNKSFKVGKSEFQVYYPGKGHTADNVVVWFPKEKVLVGGCIIKSADSKDLGYIGEAYVNDWTQSVHNIQQKFSGAQYVVAGHDDWKDQRSIQHTLDLINEYQQKQKASN,soluble
